Laboratory results taken from the supplement of paper PMC9170038.

Assays:
MS2 coat protein [1] = experiment: apparent KD of MS2 coat protein; higher = weaker reporter binding; conditions: Eterna round: R101
Protocol: (§1)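 RNA-MaP: designed FMN/MS2 RNA switches (84 nt design region) are transcribed on-chip within common flanks and titrated with SNAP-549-labelled MS2 coat protein (about 1-3000 nM) in 100 mM Tris pH 7.5, 80 mM KCl, 4 mM MgCl2, without or with 200 uM FMN. Median apparent KD per design; activation ratio = KD,OFF / KD,ON.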

MS2 coat protein [2] = experiment: apparent KD of MS2 coat protein; designed switch direction (-1 OFF switch, 1 ON switch): 1; higher = weaker reporter binding; conditions: Eterna round: R98
Protocol: as §1

MS2 coat protein [3] = experiment: apparent KD of MS2 coat protein, switch OFF state (with FMN for OFF switches, without FMN for ON switches); designed switch direction (-1 OFF switch, 1 ON switch): 1; higher = weaker reporter binding; conditions: FMN input: 0 or 200 uM; Eterna round: R93 (includes R88 designs)
Procedure, shortened: (§2)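 Apparent KD was obtained for each design as the median of normalised binding-curve fits over its clusters. RNA switches transcribed on-chip from Illumina sequencing clusters were titrated with SNAP-549-labelled MS2 coat protein (twofold steps, 0.7 or 1.5 nM to 3 µM) in 100 mM Tris-HCl pH 7.5, 80 mM KCl, 4 mM MgCl2, without or with constant ligand.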

MS2 coat protein [4] = experiment: apparent KD of MS2 coat protein, switch ON state; designed switch direction (-1 OFF switch, 1 ON switch): 1; higher = weaker reporter binding; conditions: FMN input: 0 or 200 uM; Eterna round: R93 (includes R88 designs)
Procedure, shortened: as §2

Sequence	apparent KD of MS2 coat protein (MS2 coat protein [2]; input ligand: FMN 200 uM) [nM]	apparent KD of MS2 coat protein (MS2 coat protein [2]; input ligand: none) [nM]	apparent KD of MS2 coat protein (MS2 coat protein [3]) [nM]	apparent KD of MS2 coat protein (MS2 coat protein [4]) [nM]	also measured
AUCAGCUCGUCAGGAUAUACGUCACUGCUUCGGCAGUGUGGUAAGAUCACAUGAGGAUCACCCAUGUAGAAGGGACGAGCUGAU [#EX_NG2_M81 #GC_VS_GU_SWITCHING] (puzzle (switch architecture): Exclusion NG 2)					apparent KD of MS2 coat protein (MS2 coat protein [1]; input ligand: FMN 200 uM): 258 nM; apparent KD of MS2 coat protein (MS2 coat protein [1]; input ligand: none): 13.4 nM
UGAUCGCUUGGAGGAUAUCCAACUAUCCUAGUUGGAGAAGGCCAAGCUACAGAGCUAAGCUUGGAAGUCACUUCGGAUCAACAC [pwkr ssNG1 F9.4.1]	65.5	32.7			
GGGUACAUCGGAGGAUAUCAUGUAUAUACAUGAGGAUCACCCAUGUCGAUGGAGACAUCGGAGAUUGAGAAGGCCGAUGUACCG (puzzle (switch architecture): Same State NG 2)					apparent KD of MS2 coat protein (MS2 coat protein [1]; input ligand: FMN 200 uM): 11.8 nM; apparent KD of MS2 coat protein (MS2 coat protein [1]; input ligand: none): 382 nM
UAUUGCGCCGUAAAAUAACACAUGAGGAUCACCCAUGUGACACAGGAUAUAACCAGAUCAGAAAGUUAGAAGGGUGAAAACGGC [Edraed Mod 3 - Jieux - Same State NG3]	20.4	30.8			
AAAACAUGAGGAUCACCCAUGUAAAGAACGGUUAAUUAAAGUGAGGAUAUACAAAAUUUUAUAUAGUAGAAGGCACUGGGUACA [JR_SSNG3_Sub022]	24.9	21.4			
CACACAUGGUGAGGAUAUGCAGAGGAUCACCCUGUAGAAGGCAUCAGGGUAGAAGGUGCAAGGAUCACCUGUAAGGAUAUAUCC [pwkr2 ssNG1 DX.27]	1030	1430			
GUCCCAGUCACAGGAUAUGGCUCCGUAAUGGAGCCAGAAGGGUGAUAUUCAGAAAACACACAUGAGGAUCACCCAUGUAAUAAA [Enindiinso]	188	774			
GUAGCAUACAGAGGAUAUUCAAACCGGAAACGGACAUGAGGAUCACCCAUGUGGCGAAAGCCUAGGGAGAAGGCUGAAUGCUAC [Xeinanis 75 40]	11.7	16			
CCUGACACUUGAGGAUAUGCUCAGGAUAACUGAGCAGAAGGCAGGAAAACCUGAGGAUCACCCAGGUAAGUCAGGAAUAAUAAA [Same State NG1 - A3C, U17G Submission 3B]	15.8	21.7			
GUAGCAUACCGAGGAUAUUCAUCCGGAUUACGGACAUGAGGAUCACCCAUGUGGCGAAAGCCUUGGGAGAAGGCGGAAUGCUAC [Xeinanis 75 33]	34.4	369			
GACGAAAUCUUAGGAUAUGCUCAGGAAUACUGAGCAGAAGGAAGAUAUACCUGAGGAUCACCCAGGUUAAACUGGACGUCAAUA [Same State NG1 - A3C, U17G Submission 8I U7A]	24.9	29.4			
GCAGAAGGUGCGGAGGAUCACCCUGUAAGGAUAUGCAUUAGCAAGGAUAUACAGAGGAUCACCCUGUAGAAGGUGCACUACUCA [pwkr2 ssNG3 DX.3]	562	1970			
AAAACAUACCGAGGAUAUUCAUUUUAUAAAUAAACAUGAGGAUCACCCAUGUGGCAAAAGCCUAGGGAGAAGGCGGAAUGCUAA [salish99_SSNG2_r2_121]	29.9	39.6			
CCCUCCAGAAGAGGGACAUGAGGAUCACCCAUGUAGGCUGCACAGGAUAUCGAUCGGAGGCGGUACGAGAAGGGUGACGUCAUU [Atleis]	48.7	26.9			
GCUUGCGACGCAGGAUAUGGGUGCCUGCACAUGAGCAUCAGCCAUGUUGAGGAACGGAUUACGUCUCAGAAGGGCGUGGCAGGC [United States 3 - Jieux - Same State NG 2]	16.7	19.9			
CCAGAUGUGUGAGGAUAUAGAGUGGAAUACACUCUAGAAGGUAUGUGAAAACAUGAGGAUCACCCAUGUGAUUAAUCAUCUGGA [SameState #2 NG1]	27.9	24.4			

Sequence	apparent KD of MS2 coat protein (MS2 coat protein [2]; input ligand: FMN 200 uM) [nM]	apparent KD of MS2 coat protein (MS2 coat protein [2]; input ligand: none) [nM]	apparent KD of MS2 coat protein (MS2 coat protein [3]) [nM]	apparent KD of MS2 coat protein (MS2 coat protein [4]) [nM]	also measured
AGCGGUAGGACAGGAUAUGGUGACUUCAAGCGGCCAGAAGGGUCCCGACAUGAGGAUCACCCAUGUCUUCCAGGCAGGGAGCGC [Teanisradi]	710	234			
AGGAAACAUGAGGAUCACCCAUGUAAAAAUAUGGGAGGAUAUUGAAAGACGAAAGUCAAACAAGAAGGCCUAAAAG [Garnet 21]			128	24	
AGAAAUAAAAGAGAGGAUAUCCAAAAGAAAACAUGAGGAUCACCCAUGUAAAAGAAAAUAAAAUGGGAGAAGGCUCGAAAUAAGA [Topaz 21]			107	18.3	
CGGAGACAUGAGGAUCACCCAUGUGAGAAGAGGCGAGGAUAUUGAAAGAAAGAAGAGAAAUGAGAAGGCGCGAGCC [salish99-SS1-083]			38.1	55.3	
AAAACACAUGAGGAUCACCCAUGUGAAAACAUGAGAGGAUAUGCAUGGAAAACAUGCUAUGCAGAAGGCUCAUGUG [SS1 - 8]			23.2	16.5	
AUAAUACAUGAGGAUCACCCAUGUCAAGGCUAUCAAGGAUAUAGACAACGUAGCGGUUGACUAGAAGGUGAGAAAU [Onxeanis]			78.8	124	
GGAUCCAACACAGGAUAUGCUGGACUUUGUCCAGCAGAAGGGUGAAACAUGAGGAUCACCCAUGUAUGGAUCCAUAUAUUUAAU [Denovo 32]	245	629			
CGGCUACAUGAGGAUCACCCAUGUCAGCCGAGGGCAGGAUAUGUGGUUCAUUCUCAAGCAACAGAAGGGUCAAAAG [Istiacedi]			18.7	16.9	
GGCUUAAACACAGGAUAUAGCCUUAGAGUGAGGCUAGAAGGGUGAAGUUCUCAUACAUGAGGAUCACCCAUGUCACGGAGGCUA [Atteedbian]	307	37.1			
AGAAAUAAAAGUCAGGAUAUGGGUAAGAAAACAUGAGGAUCACCCAUGUAAAAGAAAAUAAAAAACCAGAAGGGACAAAAUAAAG [Reversing G segment in JL's winner (80%) Variant 4]			88.6	30.1	
AAAAACACAGUGCAGGAUAUGGUAAUAGUCACAUGAGGAUCACCCAUGUUCUUUUAUAAGAACGAUCAGAAGGGCGGUGAAAAAA [Mat - Same state - Malcolm Mod - D114]			155	241	
AAAUAAAGAUACUAGGAUAUCCCGUGAGGUACAUGAGGAUCACCCAUGUGUAACGAACUCCCGCGGGAGAAGGAGUUGCACACGA [Inanuserra]			52.4	38	
AAAAAACAUGAGGAUCACCCAUGUAAAAAAAUGGGAGGAUAUACAAAAACGAAAGAAAAAGUAGAAGGCCUGAAAA [same state 7]			159	37.7	
UAUAUAUGGUGAGGAUAUGCAGAGGAUCACCCUGUAGAAGGCAUCAGGGUAGAAGGUGCAAGGAUCACCUGUAAGGAUAUAUCC [pwkr2 ssNG1 DX.30]	587	1370			
AAAAAACAUGAGGAUCACCCAUGUGCAAAAUUCGCAGGAUAUUUCUCAAUUAAAUGAGAGGAAGAAGGGUGAAAAA [Nob's Hobby 27 - Jieux - Same State 1]			99.3	21.5	
GAAAAACAUGAGGAUCACCCAUGUAGAAAUAUGGGAGGAUAUACGAAGUCGAAAGACAAAGUAGAAGGCCUAAAAG [Garnet 27]			50.4	27.9	
